The target in this assay is HPV-16Q150A peptide (Human papillomavirus type 16). Briefly: affinity purification with mass spectrometry; biotinylated peptide (500 ug) on streptavidin magnetic sepharose beads; pre-cleared HaCaT cell extract, 2 h at 4°C; lysis buffer 50 mM HEPES pH 7.4, 150 mM NaCl, 1 mM MgCl2, 1% Triton X-100; trypsin digest and mass spectroscopy; pooled from at least two pull-downs.

B1: ZO-2 (natural protein)
chain: MPVRGDRGFPPRRELSGWLRAPGMEELIWEQYTVTLQKDSKRGFGIAVSGGRDNPHFENGETSIVISDVLPGGPADGLLQENDRVVMVNGTPMEDVLHSFAVQQLRKSGKVAAIVVKRPRKVQVAALQASPPLDQDDRAFEVMDEFDGRSFRSGYSERSRLNSHGGRSRSWEDSPERGRPHERARSRERDLSRDRSRGRSLERGLDQDHARTRDRSRGRSLERGLDHDFGPSRDRDRDRSRGRSIDQDYERAYHRAYDPDYERAYSPEYRRGARHDARSRGPRSRSREHPHSRSPSPEPRGRPGPIGVLLMKSRANEEYGLRLGSQIFVKEMTRTGLATKDGNLHEGDIILKINGTVTENMSLTDARKLIEKSRGKLQLVVLRDSQQTLINIPSLNDSDSEIEDISEIESNRSFSPEERRHQYSDYDYHSSSEKLKERPSSREDTPSRLSRMGATPTPFKSTGDIAGTVVPETNKEPRYQEDPPAPQPKAAPRTFLRPSPEDEAIYGPNTKMVRFKKGDSVGLRLAGGNDVGIFVAGIQEGTSAEQEGLQEGDQILKVNTQDFRGLVREDAVLYLLEIPKGEMVTILAQSRADVYRDILACGRGDSFFIRSHFECEKETPQSLAFTRGEVFRVVDTLYDGKLGNWLAVRIGNELEKGLIPNKSRAEQMASVQNAQRDNAGDRADFWRMRGQRSGVKKNLRKSREDLTAVVSVSTKFPAYERVLLREAGFKRPVVLFGPIADIAMEKLANELPDWFQTAKTEPKDAGSEKSTGVVRLNTVRQIIEQDKHALLDVTPKAVDLLNYTQWFPIVIFFNPDSRQGVKTMRQRLNPTSNKSSRKLFDQANKLKKTCAHLFTATINLNSANDSWFGSLKDTIQHQQGEAVWVSEGKMEGMDDDPEDRMSYLTAMGADYLSCDSRLISDFEDTDGEGGAYTDNELDEPAEEPLVSSITRSSEPVQHEESIRKPSPEPRAQMRRAASSDQLRDNSPPPAFKPEPPKAKTQNKEESYDFSKSYEYKSNPSAVAGNETPGASTKGYPPPVAAKPTFGRSILKPSTPIPPQEGEEVGESSEEQDNAPKSVLGKVKIFEKMDHKARLQRMQELQEAQNARIEIAQKHPDIYAVPIKTHKPDPGTPQHTSSRPPEPQKAPSRPYQDTRGSYGSDAEEEEYRQQLSEHSKRGYYGQSARYRDTEL
Consider B1, for which the reduction in binding against the HPV-16 peptide stood at 25%.

Source of the values: PMC4970744.
